# Data taken from patent US20260015399A1 (Boehringer Ingelheim, published 2026).
# *1 amine or outer side, *2 acyl side, *3 side chain or, on linkers, in order; H or OH if unused. Side-chain parts run from the residue outwards. The star is where a group is joined. C18 diacid = O=C(O)CCCCCCCCCCCCCCCCC(=O)*; γGlu = O=C(O)[C@H](CCC(=O)[*:2])N[*:1]; Isovaleryl = CC(C)CC(=O)*; Ahx = NCCCCCC(=O)O
# T1: human NPY2 receptor (human, UniProt P49146 1-381)
# T1 construct: whole, on cells; also called hNPY2-R; hNPY2R
# T1 sequence (looked up): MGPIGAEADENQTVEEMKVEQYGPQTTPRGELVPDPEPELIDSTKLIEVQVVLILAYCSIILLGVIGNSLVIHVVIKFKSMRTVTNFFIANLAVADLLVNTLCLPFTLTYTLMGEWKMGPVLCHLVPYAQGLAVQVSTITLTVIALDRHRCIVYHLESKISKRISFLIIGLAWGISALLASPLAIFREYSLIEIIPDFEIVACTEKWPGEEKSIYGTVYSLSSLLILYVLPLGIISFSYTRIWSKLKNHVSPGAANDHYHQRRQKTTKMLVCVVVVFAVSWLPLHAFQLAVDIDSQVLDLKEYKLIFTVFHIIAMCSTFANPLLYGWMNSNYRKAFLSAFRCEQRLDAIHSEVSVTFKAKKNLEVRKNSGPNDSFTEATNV
# B1: Compound 134 (peptide)
# peptide: Isovaleryl-APEK([Ahx-γGlu-C18 diacid])PEEDATPEEQQRYYVSLRHYYNWLTRQRY-NH2
# SMILES: CC(C)CC(=O)N[C@@H](C)C(=O)N1CCC[C@H]1C(=O)N[C@@H](CCC(=O)O)C(=O)N[C@@H](CCCCNC(=O)CCCCCNC(=O)CC[C@H](NC(=O)CCCCCCCCCCCCCCCCC(=O)O)C(=O)O)C(=O)N1CCC[C@H]1C(=O)N[C@@H](CCC(=O)O)C(=O)N[C@@H](CCC(=O)O)C(=O)N[C@@H](CC(=O)O)C(=O)N[C@@H](C)C(=O)N[C@H](C(=O)N1CCC[C@H]1C(=O)N[C@@H](CCC(=O)O)C(=O)N[C@@H](CCC(=O)O)C(=O)N[C@@H](CCC(N)=O)C(=O)N[C@@H](CCC(N)=O)C(=O)N[C@@H](CCCNC(=N)N)C(=O)N[C@@H](Cc1ccc(O)cc1)C(=O)N[C@@H](Cc1ccc(O)cc1)C(=O)N[C@H](C(=O)N[C@@H](CO)C(=O)N[C@@H](CC(C)C)C(=O)N[C@@H](CCCNC(=N)N)C(=O)N[C@@H](Cc1c[nH]cn1)C(=O)N[C@@H](Cc1ccc(O)cc1)C(=O)N[C@@H](Cc1ccc(O)cc1)C(=O)N[C@@H](CC(N)=O)C(=O)N[C@@H](Cc1c[nH]c2ccccc12)C(=O)N[C@@H](CC(C)C)C(=O)N[C@H](C(=O)N[C@@H](CCCNC(=N)N)C(=O)N[C@@H](CCC(N)=O)C(=O)N[C@@H](CCCNC(=N)N)C(=O)N[C@@H](Cc1ccc(O)cc1)C(N)=O)[C@@H](C)O)C(C)C)[C@@H](C)O
# B2: Compound 139 (peptide)
# peptide: Isovaleryl-APEK([Ahx-γGlu-C18 diacid])PEEEASPAELQRYYVSLRHYYNWLTRQRY-NH2
# SMILES: CC(C)CC(=O)N[C@@H](C)C(=O)N1CCC[C@H]1C(=O)N[C@@H](CCC(=O)O)C(=O)N[C@@H](CCCCNC(=O)CCCCCNC(=O)CC[C@H](NC(=O)CCCCCCCCCCCCCCCCC(=O)O)C(=O)O)C(=O)N1CCC[C@H]1C(=O)N[C@@H](CCC(=O)O)C(=O)N[C@@H](CCC(=O)O)C(=O)N[C@@H](CCC(=O)O)C(=O)N[C@@H](C)C(=O)N[C@@H](CO)C(=O)N1CCC[C@H]1C(=O)N[C@@H](C)C(=O)N[C@@H](CCC(=O)O)C(=O)N[C@@H](CC(C)C)C(=O)N[C@@H](CCC(N)=O)C(=O)N[C@@H](CCCNC(=N)N)C(=O)N[C@@H](Cc1ccc(O)cc1)C(=O)N[C@@H](Cc1ccc(O)cc1)C(=O)N[C@H](C(=O)N[C@@H](CO)C(=O)N[C@@H](CC(C)C)C(=O)N[C@@H](CCCNC(=N)N)C(=O)N[C@@H](Cc1c[nH]cn1)C(=O)N[C@@H](Cc1ccc(O)cc1)C(=O)N[C@@H](Cc1ccc(O)cc1)C(=O)N[C@@H](CC(N)=O)C(=O)N[C@@H](Cc1c[nH]c2ccccc12)C(=O)N[C@@H](CC(C)C)C(=O)N[C@H](C(=O)N[C@@H](CCCNC(=N)N)C(=O)N[C@@H](CCC(N)=O)C(=O)N[C@@H](CCCNC(=N)N)C(=O)N[C@@H](Cc1ccc(O)cc1)C(N)=O)[C@@H](C)O)C(C)C
# B3: Compound 137 (peptide)
# peptide: Isovaleryl-APEK([Ahx-γGlu-C18 diacid])PEEDATPEELQRYYVSLRHYYNWLLRQRY-NH2
# SMILES: CC(C)CC(=O)N[C@@H](C)C(=O)N1CCC[C@H]1C(=O)N[C@@H](CCC(=O)O)C(=O)N[C@@H](CCCCNC(=O)CCCCCNC(=O)CC[C@H](NC(=O)CCCCCCCCCCCCCCCCC(=O)O)C(=O)O)C(=O)N1CCC[C@H]1C(=O)N[C@@H](CCC(=O)O)C(=O)N[C@@H](CCC(=O)O)C(=O)N[C@@H](CC(=O)O)C(=O)N[C@@H](C)C(=O)N[C@H](C(=O)N1CCC[C@H]1C(=O)N[C@@H](CCC(=O)O)C(=O)N[C@@H](CCC(=O)O)C(=O)N[C@@H](CC(C)C)C(=O)N[C@@H](CCC(N)=O)C(=O)N[C@@H](CCCNC(=N)N)C(=O)N[C@@H](Cc1ccc(O)cc1)C(=O)N[C@@H](Cc1ccc(O)cc1)C(=O)N[C@H](C(=O)N[C@@H](CO)C(=O)N[C@@H](CC(C)C)C(=O)N[C@@H](CCCNC(=N)N)C(=O)N[C@@H](Cc1c[nH]cn1)C(=O)N[C@@H](Cc1ccc(O)cc1)C(=O)N[C@@H](Cc1ccc(O)cc1)C(=O)N[C@@H](CC(N)=O)C(=O)N[C@@H](Cc1c[nH]c2ccccc12)C(=O)N[C@@H](CC(C)C)C(=O)N[C@@H](CC(C)C)C(=O)N[C@@H](CCCNC(=N)N)C(=O)N[C@@H](CCC(N)=O)C(=O)N[C@@H](CCCNC(=N)N)C(=O)N[C@@H](Cc1ccc(O)cc1)C(N)=O)C(C)C)[C@@H](C)O
# B4: Compound 141 (peptide)
# peptide: Isovaleryl-APEK([Ahx-γGlu-C18 diacid])PEEDATPEELQSYYVSLRHYYNWLTRQRY-NH2
# SMILES: CC(C)CC(=O)N[C@@H](C)C(=O)N1CCC[C@H]1C(=O)N[C@@H](CCC(=O)O)C(=O)N[C@@H](CCCCNC(=O)CCCCCNC(=O)CC[C@H](NC(=O)CCCCCCCCCCCCCCCCC(=O)O)C(=O)O)C(=O)N1CCC[C@H]1C(=O)N[C@@H](CCC(=O)O)C(=O)N[C@@H](CCC(=O)O)C(=O)N[C@@H](CC(=O)O)C(=O)N[C@@H](C)C(=O)N[C@H](C(=O)N1CCC[C@H]1C(=O)N[C@@H](CCC(=O)O)C(=O)N[C@@H](CCC(=O)O)C(=O)N[C@@H](CC(C)C)C(=O)N[C@@H](CCC(N)=O)C(=O)N[C@@H](CO)C(=O)N[C@@H](Cc1ccc(O)cc1)C(=O)N[C@@H](Cc1ccc(O)cc1)C(=O)N[C@H](C(=O)N[C@@H](CO)C(=O)N[C@@H](CC(C)C)C(=O)N[C@@H](CCCNC(=N)N)C(=O)N[C@@H](Cc1c[nH]cn1)C(=O)N[C@@H](Cc1ccc(O)cc1)C(=O)N[C@@H](Cc1ccc(O)cc1)C(=O)N[C@@H](CC(N)=O)C(=O)N[C@@H](Cc1c[nH]c2ccccc12)C(=O)N[C@@H](CC(C)C)C(=O)N[C@H](C(=O)N[C@@H](CCCNC(=N)N)C(=O)N[C@@H](CCC(N)=O)C(=O)N[C@@H](CCCNC(=N)N)C(=O)N[C@@H](Cc1ccc(O)cc1)C(N)=O)[C@@H](C)O)C(C)C)[C@@H](C)O
# B5: Compound 135 (peptide)
# peptide: Isovaleryl-APEK([Ahx-γGlu-C18 diacid])PEAAAEPEEIQRYYVALRHYYNWLTRQRY-NH2
# SMILES: CC[C@H](C)[C@H](NC(=O)[C@H](CCC(=O)O)NC(=O)[C@H](CCC(=O)O)NC(=O)[C@@H]1CCCN1C(=O)[C@H](CCC(=O)O)NC(=O)[C@H](C)NC(=O)[C@H](C)NC(=O)[C@H](C)NC(=O)[C@H](CCC(=O)O)NC(=O)[C@@H]1CCCN1C(=O)[C@H](CCCCNC(=O)CCCCCNC(=O)CC[C@H](NC(=O)CCCCCCCCCCCCCCCCC(=O)O)C(=O)O)NC(=O)[C@H](CCC(=O)O)NC(=O)[C@@H]1CCCN1C(=O)[C@H](C)NC(=O)CC(C)C)C(=O)N[C@@H](CCC(N)=O)C(=O)N[C@@H](CCCNC(=N)N)C(=O)N[C@@H](Cc1ccc(O)cc1)C(=O)N[C@@H](Cc1ccc(O)cc1)C(=O)N[C@H](C(=O)N[C@@H](C)C(=O)N[C@@H](CC(C)C)C(=O)N[C@@H](CCCNC(=N)N)C(=O)N[C@@H](Cc1c[nH]cn1)C(=O)N[C@@H](Cc1ccc(O)cc1)C(=O)N[C@@H](Cc1ccc(O)cc1)C(=O)N[C@@H](CC(N)=O)C(=O)N[C@@H](Cc1c[nH]c2ccccc12)C(=O)N[C@@H](CC(C)C)C(=O)N[C@H](C(=O)N[C@@H](CCCNC(=N)N)C(=O)N[C@@H](CCC(N)=O)C(=O)N[C@@H](CCCNC(=N)N)C(=O)N[C@@H](Cc1ccc(O)cc1)C(N)=O)[C@@H](C)O)C(C)C
# B6: Compound 138 (peptide)
# peptide: Isovaleryl-APEK([Ahx-γGlu-C18 diacid])PEEDAEPEELQEYYVSLRHYYNWLTRQRY-NH2
# SMILES: CC(C)CC(=O)N[C@@H](C)C(=O)N1CCC[C@H]1C(=O)N[C@@H](CCC(=O)O)C(=O)N[C@@H](CCCCNC(=O)CCCCCNC(=O)CC[C@H](NC(=O)CCCCCCCCCCCCCCCCC(=O)O)C(=O)O)C(=O)N1CCC[C@H]1C(=O)N[C@@H](CCC(=O)O)C(=O)N[C@@H](CCC(=O)O)C(=O)N[C@@H](CC(=O)O)C(=O)N[C@@H](C)C(=O)N[C@@H](CCC(=O)O)C(=O)N1CCC[C@H]1C(=O)N[C@@H](CCC(=O)O)C(=O)N[C@@H](CCC(=O)O)C(=O)N[C@@H](CC(C)C)C(=O)N[C@@H](CCC(N)=O)C(=O)N[C@@H](CCC(=O)O)C(=O)N[C@@H](Cc1ccc(O)cc1)C(=O)N[C@@H](Cc1ccc(O)cc1)C(=O)N[C@H](C(=O)N[C@@H](CO)C(=O)N[C@@H](CC(C)C)C(=O)N[C@@H](CCCNC(=N)N)C(=O)N[C@@H](Cc1c[nH]cn1)C(=O)N[C@@H](Cc1ccc(O)cc1)C(=O)N[C@@H](Cc1ccc(O)cc1)C(=O)N[C@@H](CC(N)=O)C(=O)N[C@@H](Cc1c[nH]c2ccccc12)C(=O)N[C@@H](CC(C)C)C(=O)N[C@H](C(=O)N[C@@H](CCCNC(=N)N)C(=O)N[C@@H](CCC(N)=O)C(=O)N[C@@H](CCCNC(=N)N)C(=O)N[C@@H](Cc1ccc(O)cc1)C(N)=O)[C@@H](C)O)C(C)C
# Molecular target: T1, human NPY2 receptor
# Assay: RLB: displacement of 125I-PYY(1-36) from hNPY2R membranes
row,Binder,Ki [nM]
1,B1,2.8
2,B2,3.6
3,B3,49.6
4,B4,8.17
5,B5,3.83
6,B6,12.5
